Source: doi:10.1101/2024.09.12.612615

Target: Asp64 (UniProt position 64, EGCPTDSIKVA)
Assay: kinetics
Conditions: 28 °C; reduced [4Fe-4S] cluster undergoing air oxidation

Substance: [4Fe-4S] ferredoxin (BtFd) (Bacillus thermoproteolyticus)
- pKa: between a pH of 6.0 to 7.0
